From paper PMC11648230, “Structure–function analysis of tRNA t^6A-catalysis, assembly, and thermostability of Aquifex aeolicus TsaD2B2 tetramer in complex with TsaE” (The Journal of Biological Chemistry, 2024)

B1: Aquifex aeolicus TsaE (enzyme, UniProt O67011 1-133, looked up)
chain: MELLKEVILESEEDTYKLAEEIAQLLKGSEVICLRGTLGAGKTTFVKALAKALKVKNPSAVRSPTFTLVNEYETDKGKLIHIDLYRVPDFDYSEFIGEGILAVEWEERDKPCDIILEIEILDENKRKVRIYRK
notes: TsaE, Aquifex aeolicus, UniProt O67011; Monomer by SEC; also called AaTsaE; YjeE; source: E. coli BL21 (DE3) or Rosetta pLysS, purified (Ni-NTA, SEC)
B2: Thermotoga maritima TsaB (natural protein)
chain: NVLALDTSQRIRIGLRKGEDLFEISYTGEKKHAEILPVVVKKLLDELDLKVKDLDVVGVGIGPGGLTGLRVGIATVVGLVSPYDIPVAPLNSFEMTAKSCPADGVVLVARRARKGYHYCAVYLKDKGLNPLKEPSVVSDEELEEITKEFSPKIVLKDDLLISPAVLVEESERLFREKKTIHYYEIEPLYLQKSIAELNWEKKKRG
notes: TsaB, Thermotoga maritima, UniProt Q9WZX7; also called TmTsaB; source: E. coli BL21 (DE3) or Rosetta pLysS, co-expressed with TsaD (pET21a–BC14), purified (Ni-NTA, SEC)

Key:
[1] = target: T1, Thermotoga maritima TsaDB dimer variant (Thermotoga maritima, UniProt Q9WXZ2 1-327; Q9WZX7 2-206, E20A | D21A | L22A | E24A | S26A | Y27A | T28A | E30A | K31A); experiment: native gel or EMSA; native agarose-glycine gel (1.6%), 15 μg TsaD2B2 or variant and two-fold TsaE; gel and samples with 1 mM ATP and 2 mM MgCl2; settings: both partners purified
T1 construct: TsaD, Thermotoga maritima, UniProt Q9WXZ2; TsaB, Thermotoga maritima, UniProt Q9WZX7; Preformed complex of m11 and m13; also called T. maritima TsaDB; TmTsaDB; source: E. coli BL21 (DE3) or Rosetta pLysS, co-expressed, purified (Ni-NTA, SEC); copies: 1 + 1
T1 sequence (Q9WXZ2 whole entry, stated change not applied, one chain of several): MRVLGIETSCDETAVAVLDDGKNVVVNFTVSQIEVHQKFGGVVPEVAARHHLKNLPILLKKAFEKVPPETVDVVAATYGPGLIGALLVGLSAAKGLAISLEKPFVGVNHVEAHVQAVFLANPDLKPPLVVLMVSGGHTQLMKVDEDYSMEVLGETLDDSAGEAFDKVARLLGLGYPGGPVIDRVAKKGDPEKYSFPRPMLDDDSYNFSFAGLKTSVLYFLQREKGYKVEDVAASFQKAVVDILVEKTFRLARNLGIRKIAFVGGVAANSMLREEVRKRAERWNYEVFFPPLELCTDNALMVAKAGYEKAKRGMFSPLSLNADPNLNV

[2] = target: the molecule itself; experiment: SEC; co-purified TsaD–TsaB complexes and variants; elution profiles compared with one another (tetramer against dimer); Superdex 200, after Ni-NTA

Binder | binding result [1] | binding result [2]
B1 | binds | 
B2 |  | binds
